{"source": "paper doi:10.1101/2024.01.24.577129", "about": "(2024)", "test_in_all_cases": "SPR", "key": {"[1]": {"molecular_target": "D^d MHC class I monomer presenting […] (mouse | )"}, "[2]": {"molecular_target": "T1, K^d MHC class I monomer presenting VYLKTNVFL (mouse | )", "T1 chain 1": "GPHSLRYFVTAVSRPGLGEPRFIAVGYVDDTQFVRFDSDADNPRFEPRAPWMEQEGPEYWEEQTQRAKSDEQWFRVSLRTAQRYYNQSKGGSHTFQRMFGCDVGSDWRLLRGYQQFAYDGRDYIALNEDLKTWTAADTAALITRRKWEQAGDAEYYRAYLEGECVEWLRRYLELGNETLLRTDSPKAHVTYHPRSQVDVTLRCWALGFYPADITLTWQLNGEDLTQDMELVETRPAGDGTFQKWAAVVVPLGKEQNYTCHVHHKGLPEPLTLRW", "T1 chain 2": "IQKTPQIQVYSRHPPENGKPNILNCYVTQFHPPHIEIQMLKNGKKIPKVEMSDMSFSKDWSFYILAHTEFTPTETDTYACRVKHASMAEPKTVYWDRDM", "T1 chain 3": "VYLKTNVFL"}, "[3]": {"molecular_target": "T2, K^b MHC class I monomer presenting SIINFEKL (mouse | )", "T2 chain 1": "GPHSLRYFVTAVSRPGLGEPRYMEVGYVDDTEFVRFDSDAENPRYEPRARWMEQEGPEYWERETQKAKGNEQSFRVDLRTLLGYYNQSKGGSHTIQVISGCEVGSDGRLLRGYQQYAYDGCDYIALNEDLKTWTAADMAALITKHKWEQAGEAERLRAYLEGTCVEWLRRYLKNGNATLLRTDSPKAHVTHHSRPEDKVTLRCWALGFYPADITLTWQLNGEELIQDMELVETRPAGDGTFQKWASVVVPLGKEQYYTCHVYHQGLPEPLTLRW", "T2 chain 2": "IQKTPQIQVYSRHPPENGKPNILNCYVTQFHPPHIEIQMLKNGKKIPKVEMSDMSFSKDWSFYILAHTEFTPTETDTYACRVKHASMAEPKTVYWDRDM", "T2 chain 3": "SIINFEKL"}}}
{"binder": "34-1-2S antibody (antibody, V domains shown) VH: EVQLQQSGAEFVRPGASVKLSCTASGFNLKDDYMFWVKQRPEQGLEWIGWIAPDNGDTEYASKFQGKATITADTSSNTAYVQLSSLTSEDTAVYYCTTWGYYSYVNYWGQGTTLTVSS VL: DIQMTQSPSSLSASLGERVSLTCRASQDIGSNLNWLQQEPDGTIKRLIYATYSLDSGVPKRFSGSRSGSDYSLTISSLESEDFVDYYCLQYASSPYTFGGGTKLEIK", "values": [{"measurement": "Kd", "setting": "[1]", "value": 30, "unit": "nM"}, {"measurement": "Kd", "setting": "[2]", "value": 9.1, "unit": "nM"}, {"measurement": "Kd", "setting": "[3]", "value": 2490, "unit": "nM"}]}
